Results reported in US20250235548A1 (Zymeworks, published 2025).

T1: human sodium-dependent phosphate transporter 2B (NaPi2b) (human, UniProt O95436 1-690)
T1 sequence: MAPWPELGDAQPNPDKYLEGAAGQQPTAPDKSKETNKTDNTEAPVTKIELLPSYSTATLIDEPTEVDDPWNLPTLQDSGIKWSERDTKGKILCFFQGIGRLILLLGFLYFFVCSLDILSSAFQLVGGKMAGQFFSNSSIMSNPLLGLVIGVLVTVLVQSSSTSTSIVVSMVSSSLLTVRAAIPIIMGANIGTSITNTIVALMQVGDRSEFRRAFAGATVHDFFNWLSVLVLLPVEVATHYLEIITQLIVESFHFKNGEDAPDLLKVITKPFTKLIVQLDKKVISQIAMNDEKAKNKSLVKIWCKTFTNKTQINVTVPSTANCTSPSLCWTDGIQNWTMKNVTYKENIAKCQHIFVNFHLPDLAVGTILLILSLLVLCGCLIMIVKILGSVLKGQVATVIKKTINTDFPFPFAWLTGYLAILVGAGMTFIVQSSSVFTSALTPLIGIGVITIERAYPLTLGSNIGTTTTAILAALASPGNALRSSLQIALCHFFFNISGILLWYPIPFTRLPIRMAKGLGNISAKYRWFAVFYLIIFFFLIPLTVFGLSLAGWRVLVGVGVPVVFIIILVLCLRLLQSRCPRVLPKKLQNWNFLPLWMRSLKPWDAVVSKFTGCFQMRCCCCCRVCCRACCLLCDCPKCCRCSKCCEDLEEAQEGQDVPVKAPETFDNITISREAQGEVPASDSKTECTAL

T2: human sodium-dependent phosphate transporter 2B (NaPi2b) (human, UniProt O95436 1-690)
T2 sequence: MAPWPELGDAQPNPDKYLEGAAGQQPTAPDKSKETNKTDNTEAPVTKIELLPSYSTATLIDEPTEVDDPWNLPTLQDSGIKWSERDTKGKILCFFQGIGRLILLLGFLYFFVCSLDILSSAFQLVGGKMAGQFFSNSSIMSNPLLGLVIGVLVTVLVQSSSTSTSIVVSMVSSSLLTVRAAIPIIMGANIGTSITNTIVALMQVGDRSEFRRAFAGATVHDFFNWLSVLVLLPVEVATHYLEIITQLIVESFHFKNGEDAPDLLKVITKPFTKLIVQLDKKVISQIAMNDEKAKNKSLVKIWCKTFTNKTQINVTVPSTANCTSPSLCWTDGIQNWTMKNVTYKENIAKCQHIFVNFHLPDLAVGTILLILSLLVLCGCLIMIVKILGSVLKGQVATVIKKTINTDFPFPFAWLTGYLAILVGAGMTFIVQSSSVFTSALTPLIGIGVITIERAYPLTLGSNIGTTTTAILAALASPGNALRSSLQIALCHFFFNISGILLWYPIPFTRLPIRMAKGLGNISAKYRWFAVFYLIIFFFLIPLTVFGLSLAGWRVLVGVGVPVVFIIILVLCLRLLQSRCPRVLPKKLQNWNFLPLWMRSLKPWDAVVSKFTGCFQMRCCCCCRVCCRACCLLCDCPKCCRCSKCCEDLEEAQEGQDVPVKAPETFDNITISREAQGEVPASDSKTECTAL


How the values were obtained:
Test in all cases: cell-based or functional assay
[1] = target: T1, human sodium-dependent phosphate …
[2] = target: T1, human sodium-dependent phosphate …; remark: listed apart in the source
[3] = target: T2, human sodium-dependent phosphate …; remark: listed apart in the source
[4] = target: T2, human sodium-dependent phosphate …; remark: listed apart in the source

Row | Binder | Internalized Fluorescence Fold-Over Untreated, H441, 4 hours, 2.5 nM [1] [fold] | Internalized Fluorescence Fold-Over Untreated, H441, 24 hours, 2.5 nM [1] [fold] | Internalized Fluorescence Fold-Over Untreated, HCC-78, 4 hours, 2.5 nM [1] [fold] | Internalized Fluorescence Fold-Over Untreated, HCC-78, 24 hours, 2.5 nM [1] [fold] | Internalized Fluorescence Fold-Over Untreated, IGROV-1, 4 hours, 2.5 nM [1] [fold] | Internalized Fluorescence Fold-Over Untreated, IGROV-1, 24 hours, 2.5 nM [1] [fold] | EC50 (nM), in vitro cytotoxicity, H441 Spheroids [2] [nM] | EC50 (nM), in vitro cytotoxicity, H1781 Spheroids [2] [nM] | EC50 of cytotoxicity, 2D monolayer, HCC-78 cells, 4 days, CellTiter-Glo [3] [nM] | EC50 of cytotoxicity, 2D monolayer, IGROV-1 cells, 4 days, CellTiter-Glo [3] [nM] | EC50 of cytotoxicity, HCC-78 3D spheroids, 6 days, CellTiter-Glo 3D [4] [nM] | EC50 of cytotoxicity, IGROV-1 3D spheroids, 6 days, CellTiter-Glo 3D [4] [nM]
1 | v21995 (palivizumab, anti-RSV antibody) (antibody, human IgG1, kappa, V domains shown) VH: QVTLRESGPALVKPTQTLTLTCTFSGFSLSTSGMSVGWIRQPPGKALEWLADIWWDDKKDYNPSLKSRLTISKDTSKNQVVLKVTNMDPADTATYYCARSMITNWYFDVWGAGTTVTVSS VL: DIQMTQSPSTLSASVGDRVTITCKSQLSVGYMHWYQQKPGKAPKLLIYDTSKLASGVPSRFSGSGSGTEFTLTISSLQPDDFATYYCFQGSGYPFTFGGGTKLEIKR | 1 | 1.1 | 1 | 1.1 | 0.9 | 1 | – | – | – | – | – | –
2 | v18993-MCvc-PABC-MMAE (lifastuzumab vedotin) (antibody, human IgG1, kappa, drug-linker MCvc-PABC-MMAE; DAR 4.1 for the whole antibody; sites not stated) heavy 1: GEVQLVESGGGLVQPGGSLRLSCAASGFSFSDFAMSWVRQAPGKGLEWVATIGRVAFHTYYPDSMKGRFTISRDNSKNTLYLQMNSLRAEDTAVYYCARHRGFDVGHFDFWGQGTLVTVSSASTKGPSVFPLAPSSKSTSGGTAALGCLVKDYFPEPVTVSWNSGALTSGVHTFPAVLQSSGLYSLSSVVTVPSSSLGTQTYICNVNHKPSNTKVDKKVEPKSCDKTHTCPPCPAPELLGGPSVFLFPPKPKDTLMISRTPEVTCVVVDVSHEDPEVKFNWYVDGVEVHNAKTKPREEQYNSTYRVVSVLTVLHQDWLNGKEYKCKVSNKALPAPIEKTISKAKGQPREPQVYVYPPSRDELTKNQVSLTCLVKGFYPSDIAVEWESNGQPENNYKTTPPVLDSDGSFALVSKLTVDKSRWQQGNVFSCSVMHEALHNHYTQKSLSLSPG heavy 2: not shown light: GDIQMTQSPSSLSASVGDRVTITCRSSETLVHSSGNTYLEWYQQKPGKAPKLLIYRVSNRFSGVPSRFSGSGSGTDFTLTISSLQPEDFATYYCFQGSFNPLTFGQGTKVEIKRTVAAPSVFIFPPSDEQLKSGTASVVCLLNNFYPREAKVQWKVDNALQSGNSQESVTEQDSKDSTYSLSSTLTLSKADYEKHKVYACEVTHQGLSSPVTKSFNRGEC | – | – | – | – | – | – | 11.4 | 7.94 | – | – | – | –
3 | v38591 (humanized anti-NaPi2b antibody, H1L2, wild-type Fc) (antibody, human IgG1, kappa) heavy: not shown light: DVQMTQSPSSLSASVGDRVTITCRASQDVYSYLNWYQQKPGKAVKLLIYYTSRLQSGVPSRFSGSGSGTDYTLTISSLQPEDFATYYCQQYNIFPWTFGQGTKLEIKRTVAAPSVFIFPPSDEQLKSGTASVVCLLNNFYPREAKVQWKVDNALQSGNSQESVTEQDSKDSTYSLSSTLTLSKADYEKHKVYACEVTHQGLSSPVTKSFNRGEC | 1.2 | 1.9 | 5.7 | 35 | 7.2 | 26 | > 200 | > 200 | – | – | – | –
4 | v29456-MT-GGFG-AM-Compound 129 DAR 8 (antibody, human IgG1, kappa, MT-GGFG-AM-Compound 129 drug-linker on reduced cysteines (maleimide); DAR 8 for the whole antibody) heavy: not shown light: DVQMTQSPSSLSASVGDRVTITCRASQDVYSYLNWYQQKPGKAVKLLIYYTSRLQSGVPSRFSGSGSGTDYTLTISSLQPEDFATYYCQQYNIFPWTFGQGTKLEIKRTVAAPSVFIFPPSDEQLKSGTASVVCLLNNFYPREAKVQWKVDNALQSGNSQESVTEQDSKDSTYSLSSTLTLSKADYEKHKVYACEVTHQGLSSPVTKSFNRGEC | – | – | – | – | – | – | – | – | 0.42 | 1.11 | – | –
5 | v29456-MT-GGFG-AM-Compound 136 DAR 8 (antibody, human IgG1, kappa, MT-GGFG-AM-Compound 136 drug-linker on reduced cysteines (maleimide); DAR 8 for the whole antibody) heavy: not shown light: DVQMTQSPSSLSASVGDRVTITCRASQDVYSYLNWYQQKPGKAVKLLIYYTSRLQSGVPSRFSGSGSGTDYTLTISSLQPEDFATYYCQQYNIFPWTFGQGTKLEIKRTVAAPSVFIFPPSDEQLKSGTASVVCLLNNFYPREAKVQWKVDNALQSGNSQESVTEQDSKDSTYSLSSTLTLSKADYEKHKVYACEVTHQGLSSPVTKSFNRGEC | – | – | – | – | – | – | – | – | 0.43 | 4.48 | – | –
6 | v29456-MT-GGFG-AM-Compound 139 DAR 8 (antibody, human IgG1, kappa, MT-GGFG-AM-Compound 139 drug-linker on reduced cysteines (maleimide); DAR 8 for the whole antibody) heavy: not shown light: DVQMTQSPSSLSASVGDRVTITCRASQDVYSYLNWYQQKPGKAVKLLIYYTSRLQSGVPSRFSGSGSGTDYTLTISSLQPEDFATYYCQQYNIFPWTFGQGTKLEIKRTVAAPSVFIFPPSDEQLKSGTASVVCLLNNFYPREAKVQWKVDNALQSGNSQESVTEQDSKDSTYSLSSTLTLSKADYEKHKVYACEVTHQGLSSPVTKSFNRGEC | – | – | – | – | – | – | – | – | 0.65 | 1.71 | 0.82 | 0.37
7 | v38591-MC-GGFG-AM-Compound 139 DAR 4 (antibody, human IgG1, kappa, drug-linker MC-GGFG-AM-Compound 139 conjugated by maleimide after TCEP reduction; DAR 4 for the whole antibody; sites not stated) heavy: not shown light: DVQMTQSPSSLSASVGDRVTITCRASQDVYSYLNWYQQKPGKAVKLLIYYTSRLQSGVPSRFSGSGSGTDYTLTISSLQPEDFATYYCQQYNIFPWTFGQGTKLEIKRTVAAPSVFIFPPSDEQLKSGTASVVCLLNNFYPREAKVQWKVDNALQSGNSQESVTEQDSKDSTYSLSSTLTLSKADYEKHKVYACEVTHQGLSSPVTKSFNRGEC | 1.2 | 2 | 5.6 | 35.9 | 7.1 | 26.6 | 9.85 | 0.95 | – | – | – | –
8 | v29456-MT-GGFG-Compound 148 DAR 8 (antibody, human IgG1, kappa, MT-GGFG-Compound 148 drug-linker on reduced cysteines (maleimide); DAR 8 for the whole antibody) heavy: not shown light: DVQMTQSPSSLSASVGDRVTITCRASQDVYSYLNWYQQKPGKAVKLLIYYTSRLQSGVPSRFSGSGSGTDYTLTISSLQPEDFATYYCQQYNIFPWTFGQGTKLEIKRTVAAPSVFIFPPSDEQLKSGTASVVCLLNNFYPREAKVQWKVDNALQSGNSQESVTEQDSKDSTYSLSSTLTLSKADYEKHKVYACEVTHQGLSSPVTKSFNRGEC | – | – | – | – | – | – | – | – | 1.98 | – | – | –
9 | v29456-MT-GGFG-Compound 140 DAR 8 (antibody, human IgG1, kappa, MT-GGFG-Compound 140 drug-linker on reduced cysteines (maleimide); DAR 8 for the whole antibody) heavy: not shown light: DVQMTQSPSSLSASVGDRVTITCRASQDVYSYLNWYQQKPGKAVKLLIYYTSRLQSGVPSRFSGSGSGTDYTLTISSLQPEDFATYYCQQYNIFPWTFGQGTKLEIKRTVAAPSVFIFPPSDEQLKSGTASVVCLLNNFYPREAKVQWKVDNALQSGNSQESVTEQDSKDSTYSLSSTLTLSKADYEKHKVYACEVTHQGLSSPVTKSFNRGEC | – | – | – | – | – | – | – | – | 0.6 | – | 0.19 | 0.25
10 | v40502-MC-GGFG-AM-Compound 139 DAR 4 (antibody, human IgG1, kappa, L234A L235A, drug-linker MC-GGFG-AM-Compound 139 conjugated by maleimide after TCEP reduction; DAR 4 for the whole antibody (printed 3.3 in Table 45.1); sites not stated) heavy: not shown light: DVQMTQSPSSLSASVGDRVTITCRASQDVYSYLNWYQQKPGKAVKLLIYYTSRLQSGVPSRFSGSGSGTDYTLTISSLQPEDFATYYCQQYNIFPWTFGQGTKLEIKRTVAAPSVFIFPPSDEQLKSGTASVVCLLNNFYPREAKVQWKVDNALQSGNSQESVTEQDSKDSTYSLSSTLTLSKADYEKHKVYACEVTHQGLSSPVTKSFNRGEC | 1.2 | 1.9 | 5.3 | 36.5 | 6.8 | 25.4 | 7.57 | 1.15 | – | – | – | –
11 | v40502 (LALADS) anti-NaPi2b antibody (antibody, human IgG1, kappa, L234A L235A) heavy: not shown light: DVQMTQSPSSLSASVGDRVTITCRASQDVYSYLNWYQQKPGKAVKLLIYYTSRLQSGVPSRFSGSGSGTDYTLTISSLQPEDFATYYCQQYNIFPWTFGQGTKLEIKRTVAAPSVFIFPPSDEQLKSGTASVVCLLNNFYPREAKVQWKVDNALQSGNSQESVTEQDSKDSTYSLSSTLTLSKADYEKHKVYACEVTHQGLSSPVTKSFNRGEC | 1.2 | 1.9 | 5.5 | 35.5 | 7 | 25.3 | > 200 | > 200 | – | – | – | –
